The target of the assay is NES–Venus–mGsi (nuclear export sequence–Venus–mini G protein mGsi). Briefly: BRET with mini G protein V-mGsi (net BRET pH profile). Particulars: read off a plot. For orientation: Bioluminescence resonance energy transfer reports proximity on the nanometre scale.
The mark [1] stands for this setting: 150 mM K+ (no Na+), pH 6.5 point.
The mark [2] stands for this setting: 150 mM K+ (no Na+), pH 8.5 point.

The substance “GPR68–Rluc8 (wild type) (from UniProt Q15743) E149Q” yielded a response under setting [1] of 0.029 netBRET; a response under setting [2] of 0.026 netBRET; a response (150 mM Na+, pH 6.5 point) of 0.028 netBRET; a response (150 mM Na+, pH 8.5 point) of 0.018 netBRET.
The matching figures for “GPR65–Rluc8 (wild type) (from UniProt Q8IYL9) D60N; D286N”: 0.033 netBRET, 0.019 netBRET, 0.032 netBRET and 0.02 netBRET.
As for “GPR65–Rluc8 (wild type) (from UniProt Q8IYL9) E142Q”, the response under setting [1] was 0.063 netBRET; the response under setting [2] turned out to be 0.052 netBRET; the response (150 mM Na+, pH 6.5 point) worked out at 0.06 netBRET; the response (150 mM Na+, pH 8.5 point) was found to be 0.034 netBRET.
With “GPR68–Rluc8 (wild type) (from UniProt Q15743) D67N; D282N”, the response stood at 0.0073 netBRET under setting [1]; 0.0037 netBRET under setting [2]; 0.006 netBRET (150 mM Na+, pH 6.5 point); 0.0023 netBRET (150 mM Na+, pH 8.5 point).
The matching figures for “GPR4–Rluc8 (wild type) (from UniProt P46093) E145Q”: 0.032 netBRET, 0.023 netBRET, 0.032 netBRET and 0.013 netBRET.
In the same order, the values of “GPR4–Rluc8 (wild type) (from UniProt P46093) D63N; D282N” are 0.0057 netBRET, 0.0026 netBRET, 0.0068 netBRET and 0.0022 netBRET.

The values are drawn from PMC7948426.
